Results from article PMC1851640.

Assays:
StpA (Escherichia coli) = molecular target: T1, StpA (Escherichia coli) (UniProt P0ACG1); assay: filter binding
T1 sequence: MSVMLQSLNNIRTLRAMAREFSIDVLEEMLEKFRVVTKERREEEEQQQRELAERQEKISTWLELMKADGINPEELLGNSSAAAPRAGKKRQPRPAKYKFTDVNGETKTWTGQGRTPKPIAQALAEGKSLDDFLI

[1] = test system: G126V-StpA (Escherichia coli); assay: filter binding
StpA [2] = molecular target: T2, StpA (Escherichia coli, UniProt P0ACG1 1-134); assay: filter binding
T2 sequence: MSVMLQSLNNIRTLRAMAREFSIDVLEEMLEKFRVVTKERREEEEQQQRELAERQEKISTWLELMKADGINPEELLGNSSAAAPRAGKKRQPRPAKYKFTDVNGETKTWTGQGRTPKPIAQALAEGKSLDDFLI

StpA [3] = molecular target: T2, StpA; assay: FRET
StpA [4] = molecular target: T2, StpA; assay: filter binding; remark: listed apart in the source

Molecule: td mRNA (intronless)
- Kd (StpA (Escherichia coli)): 580 nM

Molecule: sho-sho td pre-mRNA
- Kd (StpA (Escherichia coli)): 730 nM
- binding signal (StpA (Escherichia coli)): 17 % bound

Molecule: sho-sho tdC865U pre-mRNA
- binding signal (StpA (Escherichia coli)): 27 % bound
- binding signal [1]: 7 % bound

Molecule: td ribozyme RNA
- binding signal (StpA (Escherichia coli)): 70 % bound

Molecule: AUGUGGAAAAUCUCUAGCAGU (ssRNA) [21R+]
- binding result (StpA [2]): binds

B1: 21R+ and duplex- (non-complementary pair) (ssRNA)
RNA 1: AUGUGGAAAAUCUCUAGCAGU
RNA 2: CUUUCAUUGGUCGGUCUCUCC
- binding result (StpA [3]): binds

B2: 21R+/21R- duplex (dsRNA)
RNA 1: AUGUGGAAAAUCUCUAGCAGU
RNA 2: ACUGCUAGAGAUUUUCCACAU
- binding result (StpA [4]): no binding
